Drawing on the supplement of paper PMC10567573, this text covers protein stability index for 29 sequences.

± gives the standard deviation.

The nature of this data set: protein stability index of a GFP-peptide fusion (GPS, HEK-293T) (PSI 1-6); higher = more stable.
Setting [1] is: treatment: DMSO, c terminus: a fixed tail appended.
Where [2] appears, read: treatment: MLN4924 1 uM, 8 h, c terminus: a fixed tail appended.
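Also: 24-mer peptide tiles fused after GFP, lentivirally expressed, FACS-sorted into six equal bins by GFP/DsRed ratio, decoded by Illumina sequencing, PSI is the read-weighted mean bin number.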

Turning to GTEFMQDPDEEHLKKSSQVPRTEA [PDLIM7], the protein stability index is, setting by setting: under setting [1], 5.47 ± 0.12; under setting [2], 5.23 ± 0.26.

With ERLRLEQQKQQIMAALNSQTAVQF [ACBD3], the protein stability index came out at 3.36 ± 0.46 under setting [1] and 3.42 ± 0.28 under setting [2].

Take SDVHPVALNFMKGCLKMNPDDRLT [CDKL4]: the protein stability index under setting [1] came out at 3.55 ± 0.27 and the protein stability index under setting [2] is 3.49 ± 0.18.

In turn, TTLLRRYNIPHGPVVGSTRRLYEK [EMD] returned a protein stability index under setting [1] of 3.14 ± 0.16 and a protein stability index under setting [2] of 3.25 ± 0.15.

ARLQDFQELELVLMISENNFLFRN [ANKRD40]: the protein stability index came out at 2.97 ± 0.63 under setting [1] and 2.66 ± 0.58 under setting [2].

Regarding LSDFEECEETGELFEEPAPQALAT [FCHSD1], the protein stability index is, setting by setting: under setting [1], 5.21 ± 0.22; under setting [2], 5.2 ± 0.23.

Take IDRQKCMAHRTRYPTILQLAGYQ [TEKT4]: the protein stability index stood at 2.26 ± 0.37 (treatment: DMSO, c terminus: native) and 2.14 ± 0.35 (treatment: MLN4924 1 uM, 8 h, c terminus: native).

Take LRDGAVPLPESRREIEELLAEAKY [KCTD10]: the protein stability index reads like this: under setting [1], 4.5 ± 0.25; under setting [2], 4.66 ± 0.28.

On to NRFRVEISFHFEVTNHNIRLFEDV [TRIM43], for which the protein stability index was found to be 2.73 ± 0.5 under setting [1] and 2.84 ± 0.22 under setting [2].

In the case of RLRLQRTGGLGGERERQPCGDGNT [SOAT2], the protein stability index runs as follows: under setting [1], 4.59 ± 0.099; under setting [2], 4.49 ± 0.14.

FIQKRCNSLLEEETILHFFVQILL [NEK8] yielded a protein stability index under setting [1] of 2.41 ± 0.36 and a protein stability index under setting [2] of 2.28 ± 0.47.

As for TFICYVASSASAFLTAPLLEFLLA [CMTM3], the protein stability index reads like this: under setting [1], 3.36 ± 0.35; under setting [2], 2.98 ± 0.39.

In the case of PQEAAGAQGRAGAPVPEPPKEEQQ [EPB41L3], the protein stability index runs as follows: under setting [1], 5.2 ± 0.45; under setting [2], 5.75 ± 0.26.

Turning to SDSVHIEDAEAVEQLREALHEALL [ESRRA], the protein stability index by setting is: under setting [1], 3.09 ± 0.42; under setting [2], 3.29 ± 0.34.

Turning to IQRIDENVLGAQLDVEAAHSEILK [STX5], the protein stability index reads like this: under setting [1], 4.15 ± 0.17; under setting [2], 4.22 ± 0.25.

For the sequence MVPHNLETTERMKCLYYLYATLDL [PDS5B], the protein stability index was 2.14 ± 0.29 under setting [1] and 2.16 ± 0.38 under setting [2].

Take DGEVPQHAGKKGKLSEHLRYCDSI [BRD3]: the protein stability index under setting [1] worked out at 4.59 ± 0.23 and the protein stability index under setting [2] came to 4.76 ± 0.23.

As for QTLSPDMQGAYCTFPASVLAPVPT [DUSP5], the protein stability index turned out to be 3.51 ± 0.32 under setting [1] and 3.51 ± 0.21 under setting [2].

Take YQDDPDLRFLLDQVQLGLRCCGAA [TSPAN10]: the protein stability index reads like this: under setting [1], 2.56 ± 0.28; under setting [2], 2.65 ± 0.22.

Turning to QGFRTVLELVINYQQLCIYWTKYY [OAS1], the protein stability index was 2.96 ± 0.33 under setting [1] and 2.79 ± 0.51 under setting [2].

With VEINDLDPEVFKEMMRFIYTGRAP [SPOPL], the protein stability index was 2.36 ± 0.33 under setting [1] and 2.05 ± 0.28 under setting [2].

In the case of VAREYYSEADASHCIQQILESVNH [CAMK2D], the protein stability index was found to be 3.46 ± 0.17 under setting [1] and 3.37 ± 0.3 under setting [2].

For the sequence TGVELAPRSAEPGYLVTKVVAVDR [PCDHGA10], the protein stability index is, setting by setting: under setting [1], 3.94 ± 0.34; under setting [2], 3.93 ± 0.084.

As for IKKLIYVHLVIWLLLVAKMSVGHL [JAGN1], the protein stability index under setting [1] came out at 3.31 ± 0.35 and the protein stability index under setting [2] is 3.13 ± 0.24.

FTMFLNLFGEKLSGTDAEETILNA [MYL5]: the protein stability index by setting is: under setting [1], 2.12 ± 0.37; under setting [2], 2.21 ± 0.2.

For the sequence LVPETEDDRKLAALLKFHTLDSYE [YJU2B], the protein stability index reads like this: under setting [1], 3.62 ± 0.34; under setting [2], 3.58 ± 0.22.

For the sequence FSTDAFSSPPQGASPVPESSLTAD [SNAP91], the protein stability index is 3.65 ± 0.57 under setting [1] and 4.25 ± 0.43 under setting [2].

Regarding ILIELAMRGRIYLEPPTMRKKRLL [GOLPH3L], the protein stability index was 2.66 ± 0.25 under setting [1] and 2.74 ± 0.66 under setting [2].

As for KSFSMANGMNAVMMHGRSYSLASG [RAB40C], the protein stability index is 3.08 ± 0.26 under setting [1] and 3.03 ± 0.098 under setting [2].
